The target in assay [1] is T1, human PAPP-A(E483Q) (human, UniProt Q13219 82-1627).
T1 construct: Active-site mutant; also called immobilized PAPP-A (SPR)
The assay can be described thus: SPR, calcium ion dependence of binding to immobilized PAPP-A. The procedure: (§1) Surface plasmon resonance analysis—Surface plasmon resonance experiments were carried out on a BIAcore T100 instrument (BIAcore AB, Uppsala, Sweden) using series S CM5 sensor chips and coupling reagents supplied by the manufacturer. Affinity purified PAPP-A(E483Q), 10 μg/mL in 10 mM sodium acetate, pH 5.0, was immobilized (at a level of 500 resonance units (RU)) to the activated chip at 25° C. Remaining activated groups were blocked by 1M ethanolamine. Purified antibodies (0.35-11 nM) diluted in 10 mM HEPES, 150 mM NaCl, 1 mM CaCl₂, 0.05% Tween-20, pH 7.4 (HBS), were injected over the sensor chip for 2 min at a flow rate of 30 μL/min at 37° C. Recorded signals were subtracted the background signal, determined by the injection of an irrelevant antibody. […] Data were analyzed using the software of the manufacturer (BIAcore T100 evaluation Software version 1.1).
However, the binding was only disturbed when PAC1 was injected with EDTA onto a chip equilibrated with the calcium ion containing buffer (FIG. 8B). Following EDTA treatment, equilibration of the flow cell using calcium ion containing buffer restored its ability to bind PAC1 (FIG. 8B). […] Similar results were obtained with PAC2 (not shown).
In general terms: SPR reads the build-up and loss of mass on a sensor chip optically.

Assay [2] addresses human PAPP-A E1535A mutant (human, UniProt Q13219 82-1627). The assay can be described thus: binding to alanine mutants of human PAPP-A (ELISA per paragraph 531). The procedure: (§2) A, PAC1 binding to human PAPP-A/PAPP-A2 chimeras or truncated human PAPP-A variants analyzed by ELISA. Sequence derived from PAPP-A is shown by open bars, and absence of binding (−) or binding (+) is indicated. […] Samples with or without EDTA (10 mM) were injected (120 s) followed by dissociation (180 s) (solid lines). […] The absence of binding (−) or binding (+) is indicated. PAC5, which was used as a positive control, binds to an epitope of PAPP-A located N-terminal to CCP1.
(§3) Determination of antibody specificity and mapping of antibody binding—Mapping of antibody binding was carried out by ELISA using PAPP-A/PAPP-A2 chimeric proteins, and mutated variants of PAPP-A. The proteins were immobilized with polyclonal PAPP-A antibodies, and binding of phage antibodies were analyzed as detailed above.

The next assay concerns the target human PAPP-A(D1499A) (human, UniProt Q13219 82-1627). The assay is described as above. The procedure:
as §2, §3

A further assay concerns the target human PAPP-A(D1484A) (human, UniProt Q13219 82-1627). Described as above. On the procedure:
as §2, §3

Assay [3] deals with human PAPP-A D1530A mutant (human, UniProt Q13219 82-1627). The description is as above. The procedure:
as §2, §3

Assay [4] addresses human PAPP-A R1529A mutant (human, UniProt Q13219 82-1627). The assay is described as above. On the procedure: as §2, §3
The target in assay [5] is human PAPP-A D1525A mutant (human, UniProt Q13219 82-1627). The assay is described as above. On the procedure:
as §2, §3

Assay [6] addresses human PAPP-A K1509A mutant (human, UniProt Q13219 82-1627). The description is as above. The procedure: as §2, §3
Another assay deals with human PAPP-A(D1502A) (human, UniProt Q13219 82-1627). The assay is described as above. On the procedure:
as §2, §3

The target in assay [7] is T2, human pregnancy-associated plasma protein-A (PAPP-A) (human, UniProt Q13219 82-1627). The assay can be described thus: cell-based or functional assay.
T2 sequence (Q13219 other isoform, or with tags, fused parts or gaps limits assumed): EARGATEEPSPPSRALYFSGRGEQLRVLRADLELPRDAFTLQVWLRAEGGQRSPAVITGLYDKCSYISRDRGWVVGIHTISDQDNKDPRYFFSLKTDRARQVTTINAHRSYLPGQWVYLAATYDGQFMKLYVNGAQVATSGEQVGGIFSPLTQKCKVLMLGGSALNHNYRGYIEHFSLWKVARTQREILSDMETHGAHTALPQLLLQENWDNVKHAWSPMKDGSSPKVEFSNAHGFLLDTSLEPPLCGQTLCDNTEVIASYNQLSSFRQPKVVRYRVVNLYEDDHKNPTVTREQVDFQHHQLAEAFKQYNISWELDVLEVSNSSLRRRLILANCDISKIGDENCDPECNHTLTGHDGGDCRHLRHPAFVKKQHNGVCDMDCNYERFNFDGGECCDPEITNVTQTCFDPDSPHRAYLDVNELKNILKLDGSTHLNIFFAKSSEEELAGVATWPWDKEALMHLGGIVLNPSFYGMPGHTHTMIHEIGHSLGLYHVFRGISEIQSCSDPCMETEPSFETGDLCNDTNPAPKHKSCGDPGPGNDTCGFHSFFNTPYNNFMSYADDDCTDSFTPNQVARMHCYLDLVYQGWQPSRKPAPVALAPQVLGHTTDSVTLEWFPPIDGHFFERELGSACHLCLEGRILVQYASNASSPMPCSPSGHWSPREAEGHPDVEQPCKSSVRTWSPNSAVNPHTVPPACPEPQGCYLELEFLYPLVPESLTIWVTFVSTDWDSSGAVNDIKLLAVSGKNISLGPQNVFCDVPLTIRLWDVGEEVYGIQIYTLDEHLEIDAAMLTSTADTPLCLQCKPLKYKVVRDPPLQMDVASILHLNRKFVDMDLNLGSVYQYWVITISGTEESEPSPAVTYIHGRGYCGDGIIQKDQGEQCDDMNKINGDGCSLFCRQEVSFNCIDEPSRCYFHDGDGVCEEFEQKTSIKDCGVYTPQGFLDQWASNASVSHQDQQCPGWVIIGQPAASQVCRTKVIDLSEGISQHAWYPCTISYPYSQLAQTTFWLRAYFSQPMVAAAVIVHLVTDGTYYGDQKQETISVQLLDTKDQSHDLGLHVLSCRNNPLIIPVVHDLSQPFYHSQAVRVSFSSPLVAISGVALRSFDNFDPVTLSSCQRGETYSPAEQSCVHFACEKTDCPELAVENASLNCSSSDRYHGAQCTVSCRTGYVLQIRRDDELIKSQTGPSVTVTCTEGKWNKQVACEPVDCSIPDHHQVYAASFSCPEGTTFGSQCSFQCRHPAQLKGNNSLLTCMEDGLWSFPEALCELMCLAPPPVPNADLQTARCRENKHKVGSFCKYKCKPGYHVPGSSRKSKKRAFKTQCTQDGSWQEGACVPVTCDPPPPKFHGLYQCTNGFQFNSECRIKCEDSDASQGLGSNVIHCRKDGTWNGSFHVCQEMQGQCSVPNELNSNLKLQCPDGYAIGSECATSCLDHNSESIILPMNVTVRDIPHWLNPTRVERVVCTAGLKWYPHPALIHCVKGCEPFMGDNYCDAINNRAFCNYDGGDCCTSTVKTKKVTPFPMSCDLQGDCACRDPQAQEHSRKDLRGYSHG
Assay [8] deals with T2, human pregnancy-associated plasma …. The assay can be described thus: inhibition of IGFBP-4 (10 nM) cleavage by human PAPP-A (0.1 nM), relative initial velocities against PAC1 concentration, competitive inhibition assumed; IGFBP-4 cleavage assay, competitive inhibition assumed. On the procedure: A) Cleavage of IGFBP-4 (10 nM) by human PAPP-A (0.1 nM) in the presence of PAC1 (1.5 μM). The cleavage reaction was incubated (37° C.), and samples were taken out at intervals from 0 to 60 min, as indicated above each lane. The cleavage was visualized by SDS-PAGE followed by autoradiography. At 60 min, a faint band is visible at the position of the cleavage products (c). B) Cleavage of IGFBP-4 (10 nM) by murine PAPP-A (0.1 nM) for 1 h at 37° C. in the presence of 0-750 nM PAC1, as indicated above each lane. C) Cleavage of IGFBP-4 (10 nM) by PAPP-A (0.1 nM) was analyzed at different concentrations of PAC1. Relative initial velocities, determined independently, are plotted as a function of PAC1 concentration. All concentrations were determined by amino acid analysis (IGFBP-4 and PAC1) or ELISA (PAPP-A). Assuming competitive inhibition, an inhibitory constant was calculated (Kᵢ=1.2 nM±0.1). […]
Measurement of proteolytic activity—Proteolytic activity of PAPP-A against IGFBP-4 and -5 was analyzed as previously described in detail (45). In brief, purified substrates, quantified by amino acid analysis, were labelled with ¹²⁵I (Amersham Biosciences). […] The degree of cleavage was determined by quantification of band intensities using a Typhoon imaging system (GE Healthcare), and background levels (mock signals) were subtracted. […]

For assay [9] the target is unchanged. The experiment in a line: cell-based or functional assay. The source holds these as a separate data set.
For assay [10], the target named is T1, human PAPP-A(E483Q). The experiment in a line: SPR (BIAcore T100), PAPP-A immobilized on CM5 chip, PAC1 0.35-11 nM injected at 37 C, 1:1 model, global fit; SPR, 37 C, PAPP-A on the chip. The procedure: A) Cleavage of IGFBP-4 (10 nM) by human PAPP-A (0.1 nM) in the presence of PAC1 (1.5 μM). The cleavage reaction was incubated (37° C.), and samples were taken out at intervals from 0 to 60 min, as indicated above each lane. The cleavage was visualized by SDS-PAGE followed by autoradiography. At 60 min, a faint band is visible at the position of the cleavage products (c). B) Cleavage of IGFBP-4 (10 nM) by murine PAPP-A (0.1 nM) for 1 h at 37° C. in the presence of 0-750 nM PAC1, as indicated above each lane. C) Cleavage of IGFBP-4 (10 nM) by PAPP-A (0.1 nM) was analyzed at different concentrations of PAC1. Relative initial velocities, determined independently, are plotted as a function of PAC1 concentration. All concentrations were determined by amino acid analysis (IGFBP-4 and PAC1) or ELISA (PAPP-A). Assuming competitive inhibition, an inhibitory constant was calculated (Kᵢ=1.2 nM±0.1). D) Sensorgrams showing binding of PAC1 to immobilized human PAPP-A. Purified PAC1 (0.35, 0.7, 1.4, 2.8, 5.5, and 11 nM) was injected onto the chip at 37° C. for 120 s followed by dissociation for 300 s.
as §1

Where two headings read alike, the source gives them in different places.

T1 sequence (Q13219 other isoform, or with tags, fused parts or gaps E483Q E483Q limits assumed): as the sequence (Q13219 other isoform, or with tags, fused parts or gaps limits assumed) above, with E483Q counted along it
Sequence of human PAPP-A D1530A mutant (Q13219 other isoform, or with tags, fused parts or gaps D1530A D1530A limits assumed): as the sequence (Q13219 other isoform, or with tags, fused parts or gaps limits assumed) above, with D1530A counted along it
Sequence of human PAPP-A(D1502A) (Q13219 other isoform, or with tags, fused parts or gaps D1502A D1502A limits assumed): as the sequence (Q13219 other isoform, or with tags, fused parts or gaps limits assumed) above, with D1502A counted along it
Sequence of human PAPP-A R1529A mutant (Q13219 other isoform, or with tags, fused parts or gaps R1529A R1529A limits assumed): as the sequence (Q13219 other isoform, or with tags, fused parts or gaps limits assumed) above, with R1529A counted along it
Sequence of human PAPP-A(D1484A) (Q13219 other isoform, or with tags, fused parts or gaps D1484A D1484A limits assumed): as the sequence (Q13219 other isoform, or with tags, fused parts or gaps limits assumed) above, with D1484A counted along it
Sequence of human PAPP-A(D1499A) (Q13219 other isoform, or with tags, fused parts or gaps D1499A D1499A limits assumed): as the sequence (Q13219 other isoform, or with tags, fused parts or gaps limits assumed) above, with D1499A counted along it
Sequence of human PAPP-A E1535A mutant (Q13219 other isoform, or with tags, fused parts or gaps E1535A E1535A limits assumed): as the sequence (Q13219 other isoform, or with tags, fused parts or gaps limits assumed) above, with E1535A counted along it
Sequence of human PAPP-A D1525A mutant (Q13219 other isoform, or with tags, fused parts or gaps D1525A D1525A limits assumed): as the sequence (Q13219 other isoform, or with tags, fused parts or gaps limits assumed) above, with D1525A counted along it
Sequence of human PAPP-A K1509A mutant (Q13219 other isoform, or with tags, fused parts or gaps K1509A K1509A limits assumed): as the sequence (Q13219 other isoform, or with tags, fused parts or gaps limits assumed) above, with K1509A counted along it

B1: PAC2 (PAPP-A exosite antibody, scFv) (scFv)
scFv: EVQLLESGGGLVQPGGSLRLSCAASGFTFSSYAMSWVRQAPGKGLEWVSSIQADGTRTGYADSVKGRFTISRDNSKNTLYLQMNSLRAEDTAVYYCAKQRGIFDYWGQGTLVTVSSGGGGSGGGGSGGGGSTDIQMTQSPSSLSASVGDRVTITCRASQSISSYLNWYQQKPGKAPKLLIYRASGLQSGVPSRFSGSGSGTDFTLTISSLQPEDFATYYCQQSHHYPSTFGQGTKVEIKRAAAHHHHHHGAAEQKLISEEDLNGAA
notes: Selected from the Tomlinson I+J phage libraries; also called scFv PAC2
B1: the binding result with human PAPP-A(E483Q) [1] is reported as “binds”; in [2], “binds”; with human PAPP-A(D1499A) it was “no binding”; in the assay with human PAPP-A(D1484A), “no binding”; in assay [3] it was “no binding”; in assay [4] it was “no binding”. The binding result in [5] is given as “binds”; in assay [6] it was “binds”; with human PAPP-A(D1502A), “no binding”.

B2: PAC1 (PAPP-A exosite antibody, scFv) (scFv)
scFv: EVQLLESGGGLVQPGGSLRLSCAASGFTFSSYAMSWVRQAPGKGLEWVSVITDMGRTTRYADSVKGRFTISRDNSKNTLYLQMNSLRAEDTAVYYCAKGLRQFDYWGQGTLVTVSSGGGGSGGGGSGGGGSTDIQMTQSPSSLSASVGDRVTITCRASQSISSYLNWYQQKPGKAPKLLIYHASQLQSGVPSRFSGSGSGTDFTLTISSLQPEDFATYYCQQYGGNPTTFGQGTKVEIKRAAAHHHHHHGAAEQKLISEEDLNGAA
notes: Selected from the Tomlinson I+J phage libraries and produced in E. coli HB2151; Purified scFv was used in SPR and cleavage assays; also called scFv PAC1; antibody PAC1
Turning to B2, the “IC50 (read off the curve)” value in [7] is ~1 nM; in assay [9] it was ~2 nM. Moreover, in assay [8], the affinity corresponds to a Ki of 1.2 nM. For the same molecule, the affinity with human PAPP-A(E483Q) [10], expressed as Kd, was 0.25 nM. The koff (commonly the rate constant with which the complex falls apart) in the assay with human PAPP-A(E483Q) [10] worked out at 0.00109 s⁻¹. Also, the kon – broadly, the rate constant with which the complex forms – in the assay with human PAPP-A(E483Q) [10] is 4.36e+06 M⁻¹ s⁻¹. The binding result (with human PAPP-A(D1499A); with human PAPP-A(D1484A); in assay [3]; in assay [4]; with human PAPP-A(D1502A)) was “no binding” in each case.

The values are drawn from patent US20100310646A1 (AARHUS UNIVERSITET, published 2010).
